From patent US20190202921A1 (Five Prime, published 2019)
Substitutions are numbered along the chain they refer to. Numbers in names are those of the source.

What was measured:
[1] = target: T1, cynomolgus monkey CSF1R ECD (cynomolgus monkey, UniProt P07333 20-505 (human entry)); assay: binding test as described in WO 2011/140249
T1 construct: also called cynoCSF1R ECD
T1 chain: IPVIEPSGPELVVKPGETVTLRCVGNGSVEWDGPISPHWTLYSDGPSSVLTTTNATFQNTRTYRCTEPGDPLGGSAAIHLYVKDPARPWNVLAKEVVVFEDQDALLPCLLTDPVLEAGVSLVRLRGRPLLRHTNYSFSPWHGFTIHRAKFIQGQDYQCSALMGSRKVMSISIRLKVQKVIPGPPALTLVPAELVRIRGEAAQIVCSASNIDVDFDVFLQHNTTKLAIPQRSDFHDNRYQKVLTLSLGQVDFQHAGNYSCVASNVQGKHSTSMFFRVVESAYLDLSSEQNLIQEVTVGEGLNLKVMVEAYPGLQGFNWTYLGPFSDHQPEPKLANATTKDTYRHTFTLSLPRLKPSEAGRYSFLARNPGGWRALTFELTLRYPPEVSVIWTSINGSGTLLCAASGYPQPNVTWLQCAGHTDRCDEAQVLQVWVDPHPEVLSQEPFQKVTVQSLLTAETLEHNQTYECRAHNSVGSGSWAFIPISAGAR

mouse CSF1R ECD = target: T2, mouse CSF1R ECD (mouse, UniProt P09581 20-515); assay: binding test as described in WO 2011/140249
T2 construct: extracellular domain
T2 sequence (looked up): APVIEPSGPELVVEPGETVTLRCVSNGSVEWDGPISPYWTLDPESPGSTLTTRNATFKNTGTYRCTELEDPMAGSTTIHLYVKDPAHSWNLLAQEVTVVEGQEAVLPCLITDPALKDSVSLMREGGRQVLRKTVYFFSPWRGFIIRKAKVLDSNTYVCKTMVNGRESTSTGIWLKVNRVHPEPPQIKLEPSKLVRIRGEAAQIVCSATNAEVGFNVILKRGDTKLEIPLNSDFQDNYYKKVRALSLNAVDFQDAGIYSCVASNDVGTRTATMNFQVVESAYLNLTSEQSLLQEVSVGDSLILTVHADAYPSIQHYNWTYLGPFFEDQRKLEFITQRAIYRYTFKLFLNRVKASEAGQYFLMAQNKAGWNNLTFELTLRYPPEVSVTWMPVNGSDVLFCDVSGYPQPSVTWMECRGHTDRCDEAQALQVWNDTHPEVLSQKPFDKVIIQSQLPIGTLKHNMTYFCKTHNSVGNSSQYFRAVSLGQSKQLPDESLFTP

rat PD-1 = target: T3, rat PD-1 (rat, UniProt D3ZIN8 25-287); assay: FACS analysis
T3 sequence: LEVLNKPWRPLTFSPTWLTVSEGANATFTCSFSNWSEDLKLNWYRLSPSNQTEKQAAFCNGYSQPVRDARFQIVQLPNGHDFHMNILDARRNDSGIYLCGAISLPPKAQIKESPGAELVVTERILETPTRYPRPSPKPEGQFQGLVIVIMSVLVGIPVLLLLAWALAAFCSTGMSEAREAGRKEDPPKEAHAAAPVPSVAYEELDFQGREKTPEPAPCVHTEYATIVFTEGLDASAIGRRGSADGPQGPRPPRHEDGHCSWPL

B1: huAb8 (antibody, human IgG4 S228P, kappa, V domains shown)
VH: QVQLVQSGAEVKKPGSSVKVSCKASGYTFSDFNIHWVRQAPGQGLEWMGYINPYTDVTVYNEKFKGRVTITSDKSTSTAYMELSSLRSEDTAVYYCASYFDGTFDYALDYWGQGTLVTVSS
VL: EIVLTQSPATLSLSPGERATLSCRASESVDNYGLSFMNWYQQKPGQAPRLLIYTASNLESGIPARFSGSGSRTDFTLTISSLEPEDFAVYYCQQSKELPWTFGQGTKVEIKR
notes: also called huAb 0302-L1H1; h0302-H1 / h0302-L1
binding result [1]: binds
binding result (mouse CSF1R ECD): no binding

B2: huAb13 (antibody, human IgG4 S228P, kappa, V domains shown)
VH: QVQLVQSGAEVKKPGSSVKVSCKASGYIFTDYNMHWVRQAPGQGLEWMGEINPNNGVVVYNQKFKGRVTITVDKSTSTAYMELSSLRSEDTAVYYCTRALYHSNFGWYFDSWGQGTLVTVSS
VL: B1 VL with R24K, E27Q, N31Y, Y32D, L34D, F36H, R72G, S95G, K96N, L98D
notes: also called huAb 0311-L0H1; h0311-H1 / h0311-L0
binding result [1]: binds
binding result (mouse CSF1R ECD): no binding

B3: huAb9 (antibody, human IgG4 S228P, kappa, V domains shown)
VH: B1 VH
VL: B1 VL with L4V, Y40F
notes: also called huAb 0302-L2H1; h0302-H1 / h0302-L2
binding result [1]: binds
binding result (mouse CSF1R ECD): no binding

B4: huAb11 (antibody, human IgG4 S228P, kappa, V domains shown)
VH: B1 VH with M48I, V68A, I70L
VL: B1 VL
notes: also called huAb 0302-L1H2; h0302-H2 / h0302-L1
binding result [1]: binds
binding result (mouse CSF1R ECD): no binding

B5: huAb10 (antibody, human IgG4 S228P, kappa, V domains shown)
VH: B1 VH with M48I, V68A, I70L
VL: B1 VL with R72G
notes: also called huAb 0302-L0H2; h0302-H2 / h0302-L0
binding result [1]: binds
binding result (mouse CSF1R ECD): no binding

B6: huAb12 (antibody, human IgG4 S228P, kappa, V domains shown)
VH: B1 VH with M48I, V68A, I70L
VL: B1 VL with L4V, Y40F
notes: also called huAb 0302-L2H2; h0302-H2 / h0302-L2
binding result [1]: binds
binding result (mouse CSF1R ECD): no binding

B7: huAb16 (antibody, human IgG4 S228P, kappa, V domains shown)
VH: B2 VH with R67T, V68T, I70L
VL: DIVLTQSPATLSLSPGERATLSCKASQSVDYDGDSHMNWYQQKPGQAPRLLIYTASNLESGIPARFSGSGSGADFTLTISSLEPEDFAVYYCQQGNEDPWTFGQGTKVEIKR
notes: also called huAb 0311-L1H2; h0311-H2 / h0311-L1
binding result [1]: binds
binding result (mouse CSF1R ECD): no binding

B8: huAb7 (antibody, human IgG4 S228P, kappa, V domains shown)
VH: B1 VH
VL: B1 VL with R72G
notes: also called huAb 0302-L0H1; h0302-H1 / h0302-L0
binding result [1]: binds
binding result (mouse CSF1R ECD): no binding

B9: huAb15 (antibody, human IgG4 S228P, kappa, V domains shown)
VH: B2 VH with R67T, V68T, I70L
VL: B7 VL with D1E, A73T
notes: also called huAb 0311-L0H2; h0311-H2 / h0311-L0
binding result [1]: binds
binding result (mouse CSF1R ECD): no binding

B10: huAb14 (antibody, human IgG4 S228P, kappa, V domains shown)
VH: B2 VH
VL: B7 VL
notes: also called huAb 0311-L1H1; h0311-H1 / h0311-L1
binding result [1]: binds
binding result (mouse CSF1R ECD): no binding

B11: nivolumab (antibody, human IgG4 S228P, kappa, V domains shown)
VH: QVQLVESGGGVVQPGRSLRLDCKASGITFSNSGMHWVRQAPGKGLEWVAVIWYDGSKRYYADSVKGRFTISRDNSKNTLFLQMNSLRAEDTAVYYCATNDDYWGQGTLVTVSS
VL: EIVLTQSPATLSLSPGERATLSCRASQSVSSYLAWYQQKPGQAPRLLIYDASNRATGIPARFSGSGSGTDFTLTISSLEPEDFAVYYCQQSSNWPRTFGQGTKVEIKR
notes: Fully human IgG4 (S228P); also called Opdivo; 5C4
binding result (rat PD-1): no binding

B12: huAb2 (antibody, human IgG4 S228P, kappa)
heavy: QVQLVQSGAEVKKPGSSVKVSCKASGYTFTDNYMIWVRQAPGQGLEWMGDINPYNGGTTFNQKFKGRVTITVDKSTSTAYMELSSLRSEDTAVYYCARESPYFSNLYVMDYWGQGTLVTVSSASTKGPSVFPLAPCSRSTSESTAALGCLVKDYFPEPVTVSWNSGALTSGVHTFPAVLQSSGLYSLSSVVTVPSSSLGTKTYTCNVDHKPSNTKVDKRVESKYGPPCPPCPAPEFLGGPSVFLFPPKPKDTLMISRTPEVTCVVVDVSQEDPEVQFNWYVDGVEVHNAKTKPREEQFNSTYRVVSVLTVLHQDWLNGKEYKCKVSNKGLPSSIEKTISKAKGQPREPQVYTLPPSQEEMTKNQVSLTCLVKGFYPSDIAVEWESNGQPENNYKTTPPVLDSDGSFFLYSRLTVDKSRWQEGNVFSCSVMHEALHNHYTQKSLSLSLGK
light: EIVLTQSPATLSLSPGERATLSCKASQSVDYDGDNYMNWYQQKPGQAPRLLIYAASNLESGIPARFSGSGSGTDFTLTISSLEPEDFAVYYCHLSNEDLSTFGGGTKVEIKRTVAAPSVFIFPPSDEQLKSGTASVVCLLNNFYPREAKVQWKVDNALQSGNSQESVTEQDSKDSTYSLSSTLTLSKADYEKHKVYACEVTHQGLSSPVTKSFNRGEC
notes: also called huAb 0301-L0H1; h0301-H1 / h0301-L0
binding result [1]: binds
binding result (mouse CSF1R ECD): no binding

B13: huAb3 (antibody, human IgG4 S228P, kappa)
heavy: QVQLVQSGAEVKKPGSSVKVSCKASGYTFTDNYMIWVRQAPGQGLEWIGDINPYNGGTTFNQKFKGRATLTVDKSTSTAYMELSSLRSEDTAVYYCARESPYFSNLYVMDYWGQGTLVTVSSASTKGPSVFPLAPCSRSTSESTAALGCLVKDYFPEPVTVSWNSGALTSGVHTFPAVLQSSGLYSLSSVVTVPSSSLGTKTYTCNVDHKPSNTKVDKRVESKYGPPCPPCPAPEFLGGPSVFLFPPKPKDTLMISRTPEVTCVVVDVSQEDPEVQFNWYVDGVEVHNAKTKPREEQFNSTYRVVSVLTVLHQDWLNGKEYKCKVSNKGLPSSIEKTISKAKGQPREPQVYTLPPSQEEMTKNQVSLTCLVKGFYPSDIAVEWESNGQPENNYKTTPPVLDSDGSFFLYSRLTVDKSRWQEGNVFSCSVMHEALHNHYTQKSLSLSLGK
light: B12 light
notes: also called huAb 0301-L0H2; h0301-H2 / h0301-L0
binding result [1]: binds
binding result (mouse CSF1R ECD): no binding

B14: huAb1 (antibody, human IgG4 S228P, kappa)
heavy: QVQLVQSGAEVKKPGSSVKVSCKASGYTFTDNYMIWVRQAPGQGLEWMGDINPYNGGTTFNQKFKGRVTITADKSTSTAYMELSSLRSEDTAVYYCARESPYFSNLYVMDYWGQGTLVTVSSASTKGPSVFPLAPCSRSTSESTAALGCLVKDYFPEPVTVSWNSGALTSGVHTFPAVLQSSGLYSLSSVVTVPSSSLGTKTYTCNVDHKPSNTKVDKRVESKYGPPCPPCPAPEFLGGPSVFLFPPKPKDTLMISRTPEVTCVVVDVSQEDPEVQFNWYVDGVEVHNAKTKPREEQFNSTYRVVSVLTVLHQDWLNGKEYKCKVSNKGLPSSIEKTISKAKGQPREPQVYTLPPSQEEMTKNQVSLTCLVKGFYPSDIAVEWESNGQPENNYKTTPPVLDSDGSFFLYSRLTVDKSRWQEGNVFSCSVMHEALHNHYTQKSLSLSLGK
light: B12 light
notes: also called huAb 0301-L0H0; FPA008
binding result [1]: binds
binding result (mouse CSF1R ECD): no binding

B15: huAb4 (antibody, human IgG4 S228P, kappa)
heavy: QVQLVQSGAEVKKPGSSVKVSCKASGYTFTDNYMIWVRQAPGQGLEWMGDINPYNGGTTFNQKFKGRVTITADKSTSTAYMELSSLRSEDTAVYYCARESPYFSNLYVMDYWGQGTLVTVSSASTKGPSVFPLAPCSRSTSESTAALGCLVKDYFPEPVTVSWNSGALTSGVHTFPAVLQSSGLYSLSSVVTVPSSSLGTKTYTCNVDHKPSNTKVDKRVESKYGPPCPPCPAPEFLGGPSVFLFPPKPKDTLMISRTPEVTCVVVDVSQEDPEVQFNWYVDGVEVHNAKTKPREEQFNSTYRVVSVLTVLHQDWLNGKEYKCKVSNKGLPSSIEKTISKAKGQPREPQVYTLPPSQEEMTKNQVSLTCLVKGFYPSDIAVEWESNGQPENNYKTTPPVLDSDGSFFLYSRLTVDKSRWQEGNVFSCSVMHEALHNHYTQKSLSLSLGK
light: B12 light with E1N
notes: also called huAb 0301-L1H0; h0301-H0 / h0301-L1
binding result [1]: binds
binding result (mouse CSF1R ECD): no binding

B16: huAb6 (antibody, human IgG4 S228P, kappa)
heavy: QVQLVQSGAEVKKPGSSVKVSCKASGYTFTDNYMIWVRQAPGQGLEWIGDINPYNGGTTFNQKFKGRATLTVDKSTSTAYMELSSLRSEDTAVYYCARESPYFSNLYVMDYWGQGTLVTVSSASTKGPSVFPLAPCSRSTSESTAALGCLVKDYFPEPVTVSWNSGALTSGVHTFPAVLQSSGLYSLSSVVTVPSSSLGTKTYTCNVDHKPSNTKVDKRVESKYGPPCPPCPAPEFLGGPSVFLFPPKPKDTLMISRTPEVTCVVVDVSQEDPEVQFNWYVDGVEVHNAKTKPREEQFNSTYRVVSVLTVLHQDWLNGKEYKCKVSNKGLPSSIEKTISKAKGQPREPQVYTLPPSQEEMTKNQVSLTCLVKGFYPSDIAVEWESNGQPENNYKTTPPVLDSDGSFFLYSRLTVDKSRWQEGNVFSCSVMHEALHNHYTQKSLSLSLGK
light: B12 light with E1N
notes: also called huAb 0301-L1H2; h0301-H2 / h0301-L1
binding result [1]: binds
binding result (mouse CSF1R ECD): no binding

B17: huAb5 (antibody, human IgG4 S228P, kappa)
heavy: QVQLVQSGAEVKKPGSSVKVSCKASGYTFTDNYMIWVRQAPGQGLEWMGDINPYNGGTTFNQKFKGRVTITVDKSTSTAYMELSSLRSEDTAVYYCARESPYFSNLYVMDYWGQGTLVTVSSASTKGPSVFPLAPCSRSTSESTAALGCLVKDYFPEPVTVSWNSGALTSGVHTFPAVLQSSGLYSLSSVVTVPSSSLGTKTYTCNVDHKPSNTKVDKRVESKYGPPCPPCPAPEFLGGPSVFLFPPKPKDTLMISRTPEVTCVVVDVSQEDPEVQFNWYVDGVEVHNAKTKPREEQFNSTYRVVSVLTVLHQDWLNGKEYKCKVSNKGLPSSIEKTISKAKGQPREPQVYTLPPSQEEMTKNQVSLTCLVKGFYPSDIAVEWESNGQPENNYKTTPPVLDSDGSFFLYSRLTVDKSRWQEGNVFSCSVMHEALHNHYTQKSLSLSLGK
light: B12 light with E1N
notes: also called huAb 0301-L1H1; h0301-H1 / h0301-L1
binding result [1]: binds
binding result (mouse CSF1R ECD): no binding
